Data: ChEMBL document CHEMBL3593243, “Discovery of novel, potent, selective and cellular active ADC type PTP1B inhibitors via fragment-docking-oriented de novel design” (Bioorg Med Chem, 2015)

Tests used:
[1] = substrate: CCOc1cc(NS(C)(=O)=O)c(OCC)cc1CNC(=O)Nc1ccc(OC)cc1; settings: Homo sapiens; 0.1 uM
Description: Inhibition of recombinant PTP1B (unknown origin) using pNPP as substrate assessed as enzyme Km at 0.1 uM after 30 mins by Michaelis-Menten plot analysis

[2] = substrate: CCOc1cc(NS(C)(=O)=O)c(OCC)cc1CNC(=O)Nc1ccc(OC)cc1; settings: Homo sapiens; 0.2 uM
Description: Inhibition of recombinant PTP1B (unknown origin) using pNPP as substrate assessed as enzyme Km at 0.2 uM after 30 mins by Michaelis-Menten plot analysis

[3] = substrate: CCOc1cc(NS(C)(=O)=O)c(OCC)cc1CNC(=O)Nc1ccc(OC)cc1; settings: Homo sapiens; 0.4 uM
Description: Inhibition of recombinant PTP1B (unknown origin) using pNPP as substrate assessed as enzyme Km at 0.4 uM after 30 mins by Michaelis-Menten plot analysis

[4] = substrate: CCOc1cc(NS(C)(=O)=O)c(OCC)cc1CNC(=O)Nc1ccc(OC)cc1; settings: Homo sapiens; 0.8 uM
Description: Inhibition of recombinant PTP1B (unknown origin) using pNPP as substrate assessed as enzyme Km at 0.8 uM after 30 mins by Michaelis-Menten plot analysis

[5] = substrate: CCOc1cc(NS(C)(=O)=O)c(OCC)cc1CNC(=O)Nc1ccc(OC)cc1; settings: Homo sapiens; 0.1 uM; remark: listed apart in the source
Description: Inhibition of recombinant PTP1B (unknown origin) using pNPP as substrate assessed as enzyme Vmax at 0.1 uM after 30 mins by Michaelis-Menten plot analysis

[6] = substrate: CCOc1cc(NS(C)(=O)=O)c(OCC)cc1CNC(=O)Nc1ccc(OC)cc1; settings: Homo sapiens; 0.2 uM; remark: listed apart in the source
Description: Inhibition of recombinant PTP1B (unknown origin) using pNPP as substrate assessed as enzyme Vmax at 0.2 uM after 30 mins by Michaelis-Menten plot analysis

[7] = substrate: CCOc1cc(NS(C)(=O)=O)c(OCC)cc1CNC(=O)Nc1ccc(OC)cc1; settings: Homo sapiens; 0.4 uM; remark: listed apart in the source
Description: Inhibition of recombinant PTP1B (unknown origin) using pNPP as substrate assessed as enzyme Vmax at 0.4 uM after 30 mins by Michaelis-Menten plot analysis

[8] = substrate: CCOc1cc(NS(C)(=O)=O)c(OCC)cc1CNC(=O)Nc1ccc(OC)cc1; settings: Homo sapiens; 0.8 uM; remark: listed apart in the source
Description: Inhibition of recombinant PTP1B (unknown origin) using pNPP as substrate assessed as enzyme Vmax at 0.8 uM after 30 mins by Michaelis-Menten plot analysis

B1: Tyrosine-protein phosphatase non-receptor type 1 (Homo sapiens), P18031 (protein)
chain: MEMEKEFEQIDKSGSWAAIYQDIRHEASDFPCRVAKLPKNKNRNRYRDVSPFDHSRIKLHQEDNDYINASLIKMEEAQRSYILTQGPLPNTCGHFWEMVWEQKSRGVVMLNRVMEKGSLKCAQYWPQKEEKEMIFEDTNLKLTLISEDIKSYYTVRQLELENLTTQETREILHFHYTTWPDFGVPESPASFLNFLFKVRESGSLSPEHGPVVVHCSAGIGRSGTFCLADTCLLLMDKRKDPSSVDIKKVLLEMRKFRMGLIQTADQLRFSYLAVIEGAKFIMGDSSVQDQWKELSHEDLEPPPEHIPPPPRPPKRILEPHNGKCREFFPNHQWVKEETQEDKDCPIKEEKGSPLNAAPYGIESMSQDTEVRSRVVGGSLRGAQAASPAKGEPSLPEKDEDHALSYWKPFLVNMCVATVLTAGAYLCYRFLFNSNT
Protein B1 has a Km [1] of 2.96 mM, a Km [2] of 3.89 mM and a Km [3] of 4.52 mM. For the same protein, the Km [4] was 7.32 mM, the Vmax (milli optical density/minute) [5] was 58.3 and the Vmax (milli optical density/minute) [6] was 54.8. For the same protein, the Vmax (milli optical density/minute) [7] was 48.9 and the Vmax (milli optical density/minute) [8] was 52.5.
